Assay results from US20230374147A1 (HUMMINGBIRD BIOSCIENCE PTE, published 2023).

Tests used:
[1] = target: T1, Cyno TACI-His (Sino Biological, 90976-C08H) (cynomolgus macaque, UniProt G7PTR7 1-165); assay: ELISA, coated Cyno TACI-His
T1 construct: Bought protein; also called cynomolgous macaque TACI; CyTACI
T1 sequence: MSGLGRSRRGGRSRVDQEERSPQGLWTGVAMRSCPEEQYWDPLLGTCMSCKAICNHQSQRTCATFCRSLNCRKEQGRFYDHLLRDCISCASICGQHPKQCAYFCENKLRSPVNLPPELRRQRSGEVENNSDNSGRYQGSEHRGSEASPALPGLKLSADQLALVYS

[2] = target: T2, His-tagged cynomolgous macaque BCMA (Acro Biosystems, BCA-C52H7) (cynomolgus macaque, UniProt Q02223 1-54 (human entry)); assay: ELISA, coated Cyno BCMA-His
T2 construct: Bought protein; also called cyno BCMA; CyBCMA; not shown: His tag

[3] = target: T2, His-tagged cynomolgous macaque BCMA …; assay: BLI, His-tagged cynomolgus BCMA on HIS1K tip
[4] = target: T3, Human HER3-His (Sino Biological, 10201-H08H) (human, UniProt P21860 20-643); assay: ELISA, coated Human HER3-His
T3 construct: Specificity control; also called Human HERS-His

[5] = target: T4, cynomolgous macaque BCMA expressed on CHOK1 cells; assay: flow cytometry, CHOK1 cells transiently expressing cynomolgus BCMA
T4 construct: also called cyno BCMA on cells

[6] = target: T5, His-tagged human BCMA (Acro Biosystems, Cat. #BCA-H522y) (human, UniProt Q02223 1-54); assay: ELISA, reference antibody, coated His-tagged antigen
T5 construct: also called huBCMA; P1; not shown: His tag
T5 sequence: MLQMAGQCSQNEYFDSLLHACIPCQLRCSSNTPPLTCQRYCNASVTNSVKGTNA

BCMA Mut = target: T6, BCMA Mut (human, UniProt Q02223 1-184); assay: flow cytometry on HEK293T cells expressing BCMA Mut
T6 construct: Expressed on HEK293T cells; also called human BCMA comprising the substitutions Y13A, D15A, L17G and L18G
T6 chain: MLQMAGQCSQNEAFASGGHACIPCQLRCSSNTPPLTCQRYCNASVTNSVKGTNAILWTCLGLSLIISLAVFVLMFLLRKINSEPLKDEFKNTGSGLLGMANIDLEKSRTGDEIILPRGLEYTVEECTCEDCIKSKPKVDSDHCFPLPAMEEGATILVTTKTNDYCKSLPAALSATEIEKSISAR

[7] = target: T7, human BCMA expressed on cells (human, UniProt Q02223 1-184); assay: flow cytometry, H929 cells (BCMA-expressing)
T7 construct: the cell line is named under assay; also called wildtype human BCMA
T7 sequence: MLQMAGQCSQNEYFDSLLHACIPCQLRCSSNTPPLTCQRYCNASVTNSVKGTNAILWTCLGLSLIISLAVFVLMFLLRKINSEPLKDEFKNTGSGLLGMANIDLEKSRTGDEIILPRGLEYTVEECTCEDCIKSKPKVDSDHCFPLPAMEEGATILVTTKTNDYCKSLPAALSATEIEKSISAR

[8] = target: T2, His-tagged cynomolgous macaque BCMA …; assay: ELISA, coated His-tagged cynomolgus BCMA
[9] = target: T5, His-tagged human BCMA (Acro Biosystems, …); assay: BLI, His-tagged human BCMA on HIS1K tip
[10] = target: T5, His-tagged human BCMA (Acro Biosystems, …); assay: ELISA, coated His-tagged human BCMA
[11] = target: T2, His-tagged cynomolgous macaque BCMA …; assay: BLI, His-tagged cynomolgus BCMA on HIS1K tip; R2 0.9963
[12] = target: T5, His-tagged human BCMA (Acro Biosystems, …); assay: BLI, His-tagged human BCMA on HIS1K tip, no APRIL; R2 0.9957
[13] = target: T5, His-tagged human BCMA (Acro Biosystems, …); assay: competition ELISA: His-tagged human BCMA binding to coated APRIL-Fc in the presence of the antibody
[14] = target: T7, human BCMA expressed on cells; assay: flow cytometry, H929 cells (BCMA+)
[15] = target: T8, recombinant his-tagged human TACI (Sinobiological cat #11937-H08H) (human, UniProt O14836 1-165); assay: ELISA, coated His-tagged human TACI
T8 construct: Bought protein; also called Human TACI-His; huTACI; not shown: His tag
T8 sequence: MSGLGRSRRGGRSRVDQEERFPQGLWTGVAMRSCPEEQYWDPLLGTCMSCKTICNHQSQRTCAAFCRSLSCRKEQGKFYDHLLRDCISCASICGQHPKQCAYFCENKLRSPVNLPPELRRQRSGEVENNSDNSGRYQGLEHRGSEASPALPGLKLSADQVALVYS

[16] = target: T9, Human BCMA-His (Sino Biological, 10620-H08H) (human, UniProt Q02223 1-54); assay: ELISA, coated Human BCMA-His
T9 construct: not shown: His tag
T9 sequence: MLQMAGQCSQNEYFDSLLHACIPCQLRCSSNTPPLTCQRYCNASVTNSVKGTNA

[17] = target: T7, human BCMA expressed on cells; assay: flow cytometry, HEK 293 cells expressing human BCMA
[18] = target: T10, His-tagged mouse BCMA (Acro Biosystems, BCA-M52H3) (mouse, UniProt O88472 1-49); assay: BLI, His-tagged mouse BCMA on HIS1K tip
T10 construct: Bought protein; not shown: His tag
T10 chain: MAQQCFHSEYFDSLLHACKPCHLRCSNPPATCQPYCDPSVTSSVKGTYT

B1: J6M0 (antibody, V domains shown)
VH: QVQLVQSGAEVKKPGSSVKVSCKASGGTFSNYWMHWVRQAPGQGLEWMGATYRGHSDTYYNQKFKGRVTITADKSTSTAYMELSSLRSEDTAVYYCARGAIYDGYDVLDNWGQGTLVTVSS
VL: DIQMTQSPSSLSASVGDRVTITCSASQDISNYLNWYQQKPGKAPKLLIYYTSNLHSGVPSRFSGSGSGTDFTLTISSLQPEDFATYYCQQYRKLPWTFGQGTKLEIK
notes: also called J6M0-hIgG1; anti-BCMA
- binding result [1]: no binding (tested: log M about -7.7 (3 ug/ml per paragraph 742))
- EC50 [2]: 0.015 nM
- Cyno BCMA response [3]: 2.16
- binding result [4]: no binding (tested: log M about -7.7 (3 ug/ml per paragraph 742))
- binding result [5]: binds
- EC50 [6]: 0.0126 µg/mL
- binding result (BCMA Mut): binds
- EC50 (read off the curve) [7]: ~1 µg/mL
- EC50 (read off the curve) [8]: ~0.01 µg/mL
- Human BCMA response [9]: 2.53
- EC50 [10]: 0.044 nM
- Kd [11]: < 0.001 nM
- Kd [12]: < 0.001 nM
- IC50 (read off the curve) [13]: ~0.5 µg/mL
- EC50 [14]: 1.77 nM
- binding result [15]: no binding (tested: 10 ug/ml)
- EC50 [16]: 0.018 nM
- EC50 [17]: 10.1 nM
- Mouse BCMA response [18]: 0.0423
